In the supplement of paper PMC11246515:
± gives the standard deviation of the averaged measurements.

Assay: total protein half-life in vivo (active degradation + dilution); higher = more stable protein
[1] = E. coli NCM3722 delta-clpP delta-lon delta-hslV, growth: N-lim chemostat, doubling time 6 h
[2] = E. coli NCM3722 delta-clpP, growth: N-lim chemostat, doubling time 6 h
[3] = E. coli NCM3722 delta-lon, growth: N-lim chemostat, doubling time 6 h
[4] = E. coli NCM3722 delta-smpB, growth: N-lim chemostat, doubling time 6 h
[5] = wild type E. coli NCM3722, growth: C-lim chemostat, doubling time 6 h
[6] = wild type E. coli NCM3722, growth: C-lim chemostat, doubling time 12 h
[7] = wild type E. coli NCM3722, growth: N-lim chemostat, doubling time 6 h
[8] = wild type E. coli NCM3722, growth: N-lim chemostat, doubling time 12 h
[9] = wild type E. coli NCM3722, growth: P-lim chemostat, doubling time 6 h
[10] = wild type E. coli NCM3722, growth: P-lim chemostat, doubling time 12 h
[11] = E. coli NCM3722 delta-hslV, growth: N-lim chemostat, doubling time 6 h
[12] = wild type E. coli NCM3722, growth: C-lim chemostat, doubling time 3 h

Sequence	total protein half-life in vivo [1] [h]	total protein half-life in vivo [2] [h]	total protein half-life in vivo [3] [h]	total protein half-life in vivo [4] [h]	total protein half-life in vivo [5] [h]	total protein half-life in vivo [6] [h]	total protein half-life in vivo [7] [h]	total protein half-life in vivo [8] [h]	total protein half-life in vivo [9] [h]	total protein half-life in vivo [10] [h]	total protein half-life in vivo [11] [h]	total protein half-life in vivo [12] [h]
MQKRAIYPGTFDPITNGHIDIVTRATQMFDHVILAIAASPSKKPMFTLEERVALAQQATAHLGNVEVVGFSDLMANFARNQHATVLIRGLRAVADFEYEMQLAHMNRHLMPELESVFLMPSKEWSFISSSLVKEVARHQGDVTHFLPENVHQALMAKLA [P0A6I6]	4.49	5.11 ± 0.59	5.58	4.82 ± 1	6.01 ± 0.25	10.8	4.62	7.33 ± 0.35	6.14 ± 0.072	12.9 ± 1		
MQKVVLATGNVGKVRELASLLSDFGLDIVAQTDLGVDSAEETGLTFIENAILKARHAAKVTALPAIADDSGLAVDVLGGAPGIYSARYSGEDATDQKNLQKLLETMKDVPDDQRQARFHCVLVYLRHAEDPTPLVCHGSWPGVITREPAGTGGFGYDPIFFVPSEGKTAAELTREEKSAISHRGQALKLLLDALRNG	4.93 ± 0.34	4.228 ± 0.016	4.93 ± 0.076	3.951 ± 0.0058	5.1 ± 0.19	8.51 ± 0.84	4 ± 0.17	6.87 ± 0.21	5.14 ± 0.35	10.7 ± 0.027	4.12 ± 0.13	3.16 ± 0.17
MQKYISEARLLLALAIPVILAQIAQTAMGFVDTVMAGGYSATDMAAVAIGTSIWLPAILFGHGLLLALTPVIAQLNGSGRRERIAHQVRQGFWLAGFVSVLIMLVLWNAGYIIRSMENIDPALADKAVGYLRALLWGAPGYLFFQVARNQCEGLAKTKPGMVMGFIGLLVNIPVNYIFIYGHFGMPELGGVGCGVATAAVYWVMFLAMVSYIKRARSMRDIRNEKGTAKPDPAVMKRLIQLGLPIALALFFEVTLFAVVALLVSPLGIVDVAGHQIALNFSSLMFVLPMSLAAAVTIRVGYRLGQGSTLDAQTAARTGLMVGVCMATLTAIFTVSLREQIALLYNDNPEVVTLAAHLMLLAAVYQISDSIQVIGSGILRGYKDTRSIFYITFTAYWVLGLPSGYILALTDLVVEPMGPAGFWIGFIIGLTSAAIMMMLRMRFLQRLPSAIILQRASR	5.68 ± 0.19	6.61	4.97 ± 0.54	5.45 ± 0.68		> 16	6.87 ± 0.42	12 ± 0.72	5.52 ± 0.6	12.7 ± 0.75		3.6
MQLNKVLKGLMIALPVMAIAACSSNKNASNDGSEGMLGAGTGMDANGGNGNMSSEEQARLQMQQLQQNNIVYFDLDKYDIRSDFAQMLDAHANFLRSNPSYKVTVEGHADERGTPEYNISLGERRANAVKMYLQGKGVSADQISIVSYGKEKPAVLGHDEAAYSKNRRAVLVY [P0A912]	6.43 ± 0.059	6.28 ± 0.35	6.35 ± 0.55	5.44 ± 0.29	5.6 ± 0.32	10.7 ± 1.1	6.17 ± 0.19	12.6 ± 0.94	5.9 ± 0.72	11.3 ± 1.8	6.46 ± 0.39	3.09 ± 0.057
MQLTSFTDYGLRALIYMASLPEGRMTSISEVTDVYGVSRNHMVKIINQLSRAGYVTAVRGKNGGIRLGKPASAIRIGDVVRELEPLSLVNCSSEFCHITPACRLKQALSKAVQSFLTELDNYTLADLVEENQPLYKLLLVE [P0AF63]	7.13 ± 1.1	6.69 ± 0.15	5.26 ± 0.19	5.26 ± 0.17	6.31 ± 1.1	8.91 ± 0.3	5.12 ± 0.58	10.2 ± 0.44	4.03 ± 0.2	6.22 ± 0.65	5.44 ± 0.07	2.93 ± 0.15
MQNRLTIKDIARLSGVGKSTVSRVLNNESGVSQLTRERVEAVMNQHGFSPSRSARAMRGQSDKVVAIIVTRLDSLSENLAVQTMLPAFYEQGYDPIMMESQFSPQLVAEHLGVLKRRNIDGVVLFGFTGITEEMLAHWQSSLVLLARDAKGFASVCYDDEGAIKILMQRLYDQGHRNISYLGVPHSDVTTGKRRHEAYLAFCKAHKLHPVAALPGLAMKQGYENVAKVITPETTALLCATDTLALGASKYLQEQRIDTLQLASVGNTPLMKFLHPEIVTVDPGYAEAGRQAACQLIAQVTGRSEPQQIIIPATLS	5.44 ± 0.36	5.57	5.53 ± 0.32	4.96 ± 0.47	5.6 ± 0.49	12.4 ± 2.4	5.0404 ± 0.0037	10.5 ± 1.1	4.72 ± 0.12	10.2 ± 1.8	5.41 ± 1	2.888 ± 0.0064
MQNTTHDNVILELTVRNHPGVMTHVCGLFARRAFNVEGILCLPIQDSDKSHIWLLVNDDQRLEQMISQIDKLEDVVKVQRNQSDPTMFNKIAVFFQ [P0ADF8]	5.25 ± 2.1	1.6 ± 0.35	2.35	1.62 ± 0.038	3.63 ± 0.07	4.56 ± 0.67	1.447 ± 0.0047	2.29 ± 0.29	2.71 ± 0.66	5.91 ± 0.75	1.74 ± 0.22	2.47 ± 0.37
MQQLASFLSGTWQSGRGRSRLIHHAISGEALWEVTSEGLDMAAARQFAIEKGAPALRAMTFIERAAMLKAVAKHLLSEKERFYALSAQTGATRADSWVDIEGGIGTLFTYASLGSRELPDDTLWPEDELIPLSKEGGFAARHLLTSKSGVAVHINAFNFPCWGMLEKLAPTWLGGMPAIIKPATATAQLTQAMVKSIVDSGLVPEGAISLICGSAGDLLDHLDSQDVVTFTGSAATGQMLRVQPNIVAKSIPFTMEADSLNCCVLGEDVTPDQPEFALFIREVVREMTTKAGQKCTAIRRIIVPQALVNAVSDALVARLQKVVVGDPAQEGVKMGALVNAEQRADVQEKVNILLAAGCEIRLGGQADLSAAGAFFPPTLLYCPQPDETPAVHATEAFGPVATLMPAQNQRHALQLACAGGGSLAGTLVTADPQIARQFIADAARTHGRIQILNEESAKESTGHGSPLPQLVHGGPGRAGGGEELGGLRAVKHYMQRTAVQGSPTMLAAISKQWVRGAKVEEDRIHPFRKYFEELQPGDSLLTPRRTMTEADIVNFACLSGDHFYAHMDKIAAAESIFGERVVHGYFVLSAAAGLFVDAGVGPVIANYGLESLRFIEPVKPGDTIQVRLTCKRKTLKKQRSAEEKPTGVVEWAVEVFNQHQTPVALYSILTLVARQHGDFVD	4.86							6.08		7.41		
MQQPVVRVGEWLVTPSINQISRNGRQLTLEPRLIDLLVFFAQHSGEVLSRDELIDNVWKRSIVTNHVVTQSISELRKSLKDNDEDSPVYIATVPKRGYKLMVPVIWYSEEEGEEIMLSSPPPIPEAVPATDSPSHSLNIQNTATPPEQSPVKSKRFTTFWVWFFFLLSLGICVALVAFSSLDTRLPMSKSRILLNPRDIDINMVNKSCNSWSSPYQLSYAIGVGDLVATSLNTFSTFMVHDKINYNIDEPSSSGKTLSIAFVNQRQYRAQQCFMSIKLVDNADGSTMLDKRYVITNGNQLAIQNDLLESLSKALNQPWPQRMQETLQKILPHRGALLTNFYQAHDYLLHGDDKSLNRASELLGEIVQSSPEFTYARAEKALVDIVRHSQHPLDEKQLAALNTEIDNIVTLPELNNLSIIYQIKAVSALVKGKTDESYQAINTGIDLEMSWLNYVLLGKVYEMKGMNREAADAYLTAFNLRPGANTLYWIENGIFQTSVPYVVPYLDKFLASE	5.6 ± 0.59	5.47 ± 0.86		5.484 ± 0.022			5.06 ± 0.32	12.73 ± 0.03	6.18 ± 0.23	12.08 ± 0.11	5.65 ± 0.78	
MQQSTPYLSFRGIGKTFPGVKALTDISFDCYAGQVHALMGENGAGKSTLLKILSGNYAPTTGSVVINGQEMSFSDTTAALNAGVAIIYQELHLVPEMTVAENIYLGQLPHKGGIVNRSLLNYEAGLQLKHLGMDIDPDTPLKYLSIGQWQMVEIAKALARNAKIIAFDEPTSSLSAREIDNLFRVIRELRKEGRVILYVSHRMEEIFALSDAITVFKDGRYVKTFTDMQQVDHDALVQAMVGRDIGDIYGWQPRSYGEERLRLDAVKAPGVRTPISLAVRSGEIVGLFGLVGAGRSELMKGMFGGTQITAGQVYIDQQPIDIRKPSHAIAAGMMLCPEDRKAEGIIPVHSVRDNINISARRKHVLGGCVINNGWEENNADHHIRSLNIKTPGAEQLIMNLSGGNQQKAILGRWLSEEMKVILLDEPTRGIDVGAKHEIYNVIYALAAQGVAVLFASSDLPEVLGVADRIVVMREGEIAGELLHEQADERQALSLAMPKVSQAVA [P0AAF3]				2.45 ± 0.57	3.922 ± 0.021	5.96 ± 0.79		6.06		10.5	5.15	2.228 ± 0.021
MQQVFFQETEFLNSVIDYDHKVETENLCLDIAYGTDKNFLFGCGISIASILKYNEGSRLCFHIFTDYFGDDDRKYFDALALQYKTRIKIYLINGDRLRSLPSTKNWTHAIYFRFVIADYFINKAPKVLYLDADIICQGTIEPLINFSFPDDKVAMVVTEGQADWWEKRAHSLGVAGIAKGYFNSGFLLINTAQWAAQQVSARAIAMLNEPEIIKKITHPDQDVLNMLLADKLIFADIKYNTQFSLNYQLKESFINPVTNDTIFIHYIGPTKPWHDWAWDYPVSQAFMEAKNASPWKNTALLKPNNSNQLRYSAKHMLKKHRYLKGFSNYLFYFIEKIKH	6.72 ± 0.28		5.78 ± 0.3	5.82 ± 0.17	5.41 ± 0.61	10.4 ± 1.1	5.16 ± 1.2	11.7 ± 0.74	5.85 ± 0.45	11.3 ± 1	5.66 ± 0.42	2.95 ± 0.088
MQREDVLGEALKLLELQGIANTTLEMVAERVDYPLDELRRFWPDKEAILYDALRYLSQQIDVWRRQLMLDETQTAEQKLLARYQALSECVKNNRYPGCLFIAACTFYPDPGHPIHQLADQQKSAAYDFTHELLTTLEVDDPAMVAKQMELVLEGCLSRMLVNRSQADVDTAHRLAEDILRFARCRQGGALT [P0ACU7]	3.74 ± 0.51	3.63 ± 0.25	3.78 ± 0.57	3.411 ± 0.028	4.86 ± 0.17	10.4 ± 2.6	3.44 ± 0.037	5.51 ± 0.28	5.04 ± 0.78	12 ± 0.99	4.07 ± 0.91	2.94 ± 0.46
